From paper PMC9537309

Assays:
Assay in all cases: FLAG immunoprecipitation and LC/ESI-MS/MS
Conditions in all cases: HEK293T cells, three biological replicates; read off a plot
[1] = biological target: FUBP3
[2] = biological target: HNRNPA2B1
[3] = biological target: ILF3
[4] = biological target: MYH9
[5] = biological target: SART3

Substance: FLAG-tagged DND1 wild-type (Dead End, full-length human protein 1-353) (from UniProt Q8IYX4) R98A
- other: log2 fold change [1]: -2.5
- other: log2 fold change [2]: -1.3
- other: log2 fold change [3]: -1.6
- other: log2 fold change [4]: 0.43
- other: log2 fold change [5]: -2.5
